Experimental data as given in US20220411483A1 (Chugai, published 2022).
Where a chain is given by its changes, count along the chain named. Each block holds one binder with its values, some of them ahead of it.

Tests used:
[1] = target: T1, FcγRIIa R type extracellular domain with C-terminal His tag (human, UniProt P12318 34-217); assay: SPR; KD of IL6R-B3/IL6R-L divided by KD of variant
T1 construct: extracellular domain; also called FcgRIIaR; not shown: His tag at the C terminus
T1 sequence (looked up): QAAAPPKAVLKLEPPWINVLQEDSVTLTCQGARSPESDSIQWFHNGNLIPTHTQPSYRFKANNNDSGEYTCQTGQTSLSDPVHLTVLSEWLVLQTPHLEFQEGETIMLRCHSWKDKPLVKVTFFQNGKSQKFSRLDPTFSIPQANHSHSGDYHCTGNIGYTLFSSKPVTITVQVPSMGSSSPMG

[2] = target: T2, FcγRIIb extracellular domain with C-terminal His tag (human, UniProt P31994 43-217); assay: SPR; KD of IL6R-B3/IL6R-L divided by KD of variant
T2 construct: extracellular domain; also called FcgRIIb; not shown: His tag at the C terminus
T2 sequence (looked up): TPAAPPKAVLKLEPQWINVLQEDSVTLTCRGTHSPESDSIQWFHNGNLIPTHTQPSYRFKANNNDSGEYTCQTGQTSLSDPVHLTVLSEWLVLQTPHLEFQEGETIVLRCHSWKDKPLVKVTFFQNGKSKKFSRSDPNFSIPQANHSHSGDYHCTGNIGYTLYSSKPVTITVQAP

[3] = target: T1, FcγRIIa R type extracellular domain …; assay: SPR, antibody captured, FcgR analyte
[4] = target: T2, FcγRIIb extracellular domain with …; assay: SPR, antibody captured, FcgR analyte
[5] = target: T3, FcγRIa extracellular domain with C-terminal His tag (human, UniProt P12314 16-292); assay: SPR, antibody captured, FcgR analyte
T3 construct: also called FcgRIa; CD64; not shown: His tag at the C terminus

[6] = target: T4, FcγRIIa H type extracellular domain with C-terminal His tag (human, UniProt P12318 34-217); assay: SPR, antibody captured, FcgR analyte
T4 construct: extracellular domain; also called FcgRIIaH; not shown: His tag at the C terminus
T4 sequence (looked up): T1 sequence (looked up) with R134H

[7] = target: T5, FcγRIIb extracellular domain, His tag (human, UniProt P31994 43-217); assay: SPR, bound amount per captured antibody
T5 construct: extracellular domain; also called FcgRIIb
T5 sequence (looked up): T2 sequence (looked up)

[8] = target: T6, FcγRIIa R type extracellular domain, His tag (human, UniProt P12318 34-217); assay: SPR, bound amount per captured antibody
T6 construct: extracellular domain; also called FcgRIIaR
T6 sequence (looked up): T1 sequence (looked up)

[9] = target: T7, FcγRIa extracellular domain, His tag (human, UniProt P12314 16-292); assay: SPR, KD ratio
T7 construct: whole entry named; also called FcgRIa

[10] = target: T5, FcγRIIb extracellular domain, His tag; assay: SPR, KD ratio
[11] = target: T8, FcγRIIIa V type extracellular domain, His tag (human, UniProt P08637 17-208); assay: SPR, KD ratio
T8 construct: extracellular domain; also called FcgRIIIaV

[12] = target: T9, FcγRIIa H type extracellular domain, His tag (human, UniProt P12318 34-217); assay: SPR, KD ratio
T9 construct: extracellular domain; also called FcgRIIaH
T9 sequence (looked up): T1 sequence (looked up) with R134H

[13] = target: T6, FcγRIIa R type extracellular domain, …; assay: SPR, KD ratio

T8 sequence (P08637 17-208 F176V): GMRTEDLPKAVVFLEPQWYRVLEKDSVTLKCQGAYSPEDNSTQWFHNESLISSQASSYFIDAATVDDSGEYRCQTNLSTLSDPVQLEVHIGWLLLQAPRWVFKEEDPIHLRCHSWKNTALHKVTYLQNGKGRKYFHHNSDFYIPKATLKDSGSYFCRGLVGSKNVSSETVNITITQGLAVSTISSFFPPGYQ
T3 sequence (P12314 16-292): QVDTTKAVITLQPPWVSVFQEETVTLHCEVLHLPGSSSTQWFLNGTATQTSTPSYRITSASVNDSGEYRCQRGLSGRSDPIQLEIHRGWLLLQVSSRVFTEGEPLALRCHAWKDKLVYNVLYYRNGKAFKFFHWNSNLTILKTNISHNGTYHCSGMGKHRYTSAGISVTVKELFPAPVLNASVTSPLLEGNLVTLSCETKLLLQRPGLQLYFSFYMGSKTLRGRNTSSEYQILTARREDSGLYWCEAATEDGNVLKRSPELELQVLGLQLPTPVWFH
T7 sequence (P12314 16-292): as above

- Relative FcgRIIaR-binding Activity [1]: 6.1
- Relative FcgRIIb-binding Activity [2]: 888
- Kd [3]: 180 nM
- Kd [4]: 3.5 nM
- Kd [5]: 6 nM
- Kd [6]: 4300 nM
B1: IL6R-BP511/IL6R-L (antibody, human IgG1, kappa, name in EU numbering)
heavy: QVQLQESGPGLVKPSETLSLTCAVSGHSISHDHAWSWVRQPPGEGLEWIGFISYSGITNYNPSLQGRVTISRDNSKNTLYLQMNSLRAEDTAVYYCARSLARTTAMDYWGEGTLVTVSSASTKGPSVFPLAPSSKSTSGGTAALGCLVKDYFPEPVTVSWNSGALTSGVHTFPAVLQSSGLYSLSSVVTVPSSSLGTQTYICNVNHKPSNTKVDKKVEPKSCDKTHTCPPCPAPELLGDDSVFLFPPKPKDTLMISRTPEVTCVVIDVAEEDGPVKFNWYVDGVEVHNAKTKPREEQDNSTYRVVSVLTVLHQDWLNGKEYKCKVSNKALPRPIEKTISKAKGQPREPQVYTLPPSRDELTKNQVSLTCLVKGFYPSDIAVEWESNGQPENNYKTTPPVLDSDGSFFLYSKLTVDKSRWQQGNVFSCSVMHEALHNHYTQESLSLSP
light: not shown
notes: human IgG1

- Kd [3]: 330 nM
- Kd [4]: 9 nM
- Kd [6]: 4900 nM
B2: IL6R-BP558/IL6R-L (antibody, human IgG1, kappa, name in EU numbering)
heavy: B1 heavy with A269G, P274D, D298Y
light: not shown
notes: human IgG1

- Relative FcgRIIaR-binding Activity [1]: 19
- Relative FcgRIIb-binding Activity [2]: 1810
- Kd [3]: 57 nM
- Kd [4]: 1.7 nM
- Kd [5]: 1.2 nM
- Kd [6]: 860 nM
B3: IL6R-BP503/IL6R-L (antibody, human IgG1, kappa, name in EU numbering)
heavy: B1 heavy with E235D, P274E, A329G, P398M
light: not shown
notes: human IgG1

- Kd [3]: 180 nM
- Kd [6]: 1600 nM
B4: IL6R-BP438/IL6R-L (antibody, human IgG1, kappa, name in EU numbering)
heavy: B1 heavy with E235D, I266V, P274E, D298Y, I334T
light: not shown
notes: human IgG1

- Relative FcgRIIaR-binding Activity [1]: 12.6
- Relative FcgRIIb-binding Activity [2]: 761
- Kd [3]: 85 nM
- Kd [4]: 4.1 nM
- Kd [5]: 2.1 nM
- Kd [6]: 960 nM
B5: IL6R-BP497/IL6R-L (antibody, human IgG1, kappa, name in EU numbering)
heavy: B1 heavy with E235D, P274E, D298Y, A329G
light: not shown
notes: human IgG1

- Relative FcgRIIaR-binding Activity [1]: 2.3
- Relative FcgRIIb-binding Activity [2]: 168
- Kd [3]: 470 nM
- Kd [4]: 18 nM
- Kd [5]: 1.2 nM
- Kd [6]: 3700 nM
B6: IL6R-BP496/IL6R-L (antibody, human IgG1, kappa, name in EU numbering)
heavy: B1 heavy with E235D, P274E, R332A
light: not shown
notes: human IgG1

- Relative FcgRIIaR-binding Activity [1]: 25.2
- Relative FcgRIIb-binding Activity [2]: 3090
- Kd [3]: 43 nM
- Kd [4]: 1 nM
- Kd [5]: 1.3 nM
- Kd [6]: 870 nM
B7: IL6R-BP489/IL6R-L (antibody, human IgG1, kappa, name in EU numbering)
heavy: B1 heavy with E235D, P274E, P398M
light: not shown
notes: human IgG1

- Relative FcgRIIb-binding Activity [7]: 104 % of IL6R-G1d/IL6R-L
- Relative FcgRIIaR-binding Activity [8]: 6.3 % of IL6R-G1d/IL6R-L
- Relative FcgRIa-binding Activity [9]: 0.0001 fold of IL6R-G1d/IL6R-L
- Relative FcgRIIb-binding Activity [10]: 1.09 fold of IL6R-G1d/IL6R-L
- Relative FcgRIIIaV-binding Activity [11]: 0.004 fold of IL6R-G1d/IL6R-L
- Relative FcgRIIaH-binding Activity [12]: 0.006 fold of IL6R-G1d/IL6R-L
- Relative FcgRIIaR-binding Activity [13]: 0.009 fold of IL6R-G1d/IL6R-L
B8: IL6R-P733/IL6R-L (antibody, human IgG1, kappa)
heavy: QVQLQESGPGLVKPSETLSLTCAVSGHSISHDHAWSWVRQPPGEGLEWIGFISYSGITNYNPSLQGRVTISRDNSKNTLYLQMNSLRAEDTAVYYCARSLARTTAMDYWGEGTLVTVSSASTKGPSVFPLAPSSKSTSGGTAALGCLVKDYFPEPVTVSWNSGALTSGVHTFPAVLQSSGLYSLSSVVTVPSSSLGTQTYICNVNHKPSNTKVDKKVEPKSCDKTHTCPPCPAPELFGQDSVMLFPPKPKDTLMISRTPEVTCVVVDVSPEDPEVKFNWYVDGVEVHNAKTKPREEQENSTYRVVSVLTVLHQDWLNGKEYKCKVHNKALPAPIEKTISKAKGQPREPQVYTLPPSRDELTKNQVSLTCLVKGFYPSDIAVEWESNGQPENNYKTTPPVLDSDGSFFLYSKLTVDKSRWQQGNVFSCSVMHEALHNHYTQKSLSLSP
light: not shown

- Relative FcgRIIb-binding Activity [7]: 169 % of IL6R-G1d/IL6R-L
- Relative FcgRIIaR-binding Activity [8]: 12.5 % of IL6R-G1d/IL6R-L
- Relative FcgRIa-binding Activity [9]: 0.0015 fold of IL6R-G1d/IL6R-L
- Relative FcgRIIb-binding Activity [10]: 2.07 fold of IL6R-G1d/IL6R-L
- Relative FcgRIIIaV-binding Activity [11]: 0.003 fold of IL6R-G1d/IL6R-L
- Relative FcgRIIaH-binding Activity [12]: 0.011 fold of IL6R-G1d/IL6R-L
- Relative FcgRIIaR-binding Activity [13]: 0.018 fold of IL6R-G1d/IL6R-L
B9: IL6R-P734/IL6R-L (antibody, human IgG1, kappa)
heavy: B8 heavy with P270H, A332H
light: not shown

- Relative FcgRIIb-binding Activity [7]: 173 % of IL6R-G1d/IL6R-L
- Relative FcgRIIaR-binding Activity [8]: 14.3 % of IL6R-G1d/IL6R-L
- Relative FcgRIa-binding Activity [9]: 0.0013 fold of IL6R-G1d/IL6R-L
- Relative FcgRIIb-binding Activity [10]: 2.26 fold of IL6R-G1d/IL6R-L
- Relative FcgRIIIaV-binding Activity [11]: 0.005 fold of IL6R-G1d/IL6R-L
- Relative FcgRIIaH-binding Activity [12]: 0.007 fold of IL6R-G1d/IL6R-L
- Relative FcgRIIaR-binding Activity [13]: 0.021 fold of IL6R-G1d/IL6R-L
B10: IL6R-P735/IL6R-L (antibody, human IgG1, kappa)
heavy: B8 heavy with H326S, A332H
light: not shown

- Relative FcgRIIb-binding Activity [7]: 99.5 % of IL6R-G1d/IL6R-L
- Relative FcgRIIaR-binding Activity [8]: 7.2 % of IL6R-G1d/IL6R-L
- Relative FcgRIa-binding Activity [9]: 0.002 fold of IL6R-G1d/IL6R-L
- Relative FcgRIIb-binding Activity [10]: 0.802 fold of IL6R-G1d/IL6R-L
- Relative FcgRIIIaV-binding Activity [11]: 0.005 fold of IL6R-G1d/IL6R-L
- Relative FcgRIIaH-binding Activity [12]: 0.006 fold of IL6R-G1d/IL6R-L
- Relative FcgRIIaR-binding Activity [13]: 0.011 fold of IL6R-G1d/IL6R-L
B11: IL6R-P737/IL6R-L (antibody, human IgG1, kappa)
heavy: B8 heavy with F237L, A332H
light: not shown
